Earlier results as cited in publication PMC2862573.

Target: CCR2 loop-2 peptide (Homo sapiens)

MCP-1 (from UniProt P13500)
Kd: 22 µM
